Reference: US20160303245A1, “FATTY ACID DERIVATIVES OF DIMERIC INHIBITORS OF PSD-95” (UNIVERSITY OF COPENHAGEN, priority 2013, published 2016)

Columns and labels:
[1] = molecular target: Human Serum Albumin (human), P02768; assay: Transil XL HSA binding kit (immobilized HSA), unbound compound by RP-HPLC
[2] = molecular target: Human Serum Albumin (human), P02768; assay: calculated from KD(HSA) at 150 µM HSA (equation 2)

Row | Kd [1] [µM] | fu (%), fraction unbound [2] [%] | Binder
1 | 55 | 26.8 | IETDV (modifications not checked) [FA-linked dimeric ligand 15]
2 | 116 | 43.6 | IETDV (modifications not checked) [FA-linked dimeric ligand 14]
